This is an account of results in paper PMC13070007 (2025).

Among the targets are KFNM; 28K30K32R; 30K32R56G; 30K32R113R.
What all share (experiment): SPR

B1: TRBC1 protein (recombinant) (natural protein)
chain: DLNKVFPPEVAVFEPSEAEISHTQKATLVCLATGFFPDHVELSWWVNGKEVHSGVSTDPQPLKEQPALNDSRYCLSSRLRVSATFWQNPRNHFRCQVQFYGLSENDEWTQDRAKPVTQIVSAEAWGRADCGFTSVSYQQGVLSA
For B1, the results for the equilibrium dissociation constant (Kd) with KFNM and with 28K30K32R were 173 nM and 952 nM, respectively.

B2: TRBC2 protein (recombinant) (natural protein)
chain: DLKNVFPPKVAVFEPSEAEISHTQKATLVCLATGFYPDHVELSWWVNGKEVHSGVSTDPQPLKEQPALNDSRYCLSSRLRVSATFWQNPRNHFRCQVQFYGLSENDEWTQDRAKPVTQIVSAEAWGRADCGFTSESYQQGVLSA
Take B2: the Kd in the experiment with 30K32R56G was found to be 46 nM; with 30K32R113R, 41 nM; with KFNM, 61 nM; in the experiment with 28K30K32R it was 30 nM.

By Kd is commonly meant the equilibrium constant for the complex coming apart. The low end stands for a tighter complex, the high end for a looser complex.
